Data on 3 molecules can be found in paper PMC11996679, “Molecular basis of human nuclear and mitochondrial tRNA 3′ processing” (Nature Structural & Molecular Biology, 2024).

The chains are these.
B1: Δ1–91 TRMT10C (enzyme, human, UniProt Q7L0Y3 92-403, looked up)
chain: AATREFIEMWRLLGREVPEHITEEELKTLMECVSNTAKKKYLKYLYTKEKVKKARQIKKEMKAAAREEAKNIKLLETTEEDKQKNFLFLRLWDRNMDIAMGWKGAQAMQFGQPLVFDMAYENYMKRKELQNTVSQLLESEGWNRRNVDPFHIYFCNLKIDGALHRELVKRYQEKWDKLLLTSTEKSHVDLFPKDSIIYLTADSPNVMTTFRHDKVYVIGSFVDKSMQPGTSLAKAKRLNLATECLPLDKYLQWEIGNKNLTLDQMIRILLCLKNNGNWQEALQFVPKRKHTGFLEISQHSQEFINRLKKAKT
notes: TRMT10C (MRPP1), human, Δ1–91, used for the structural studies; also called MRPP1

One data set addresses T1, Δ1–31 ELAC2-Asp550Asn (human, UniProt Q9BQ52 32-826, Asp550Asn).
T1 construct: Cloned in the 438-B vector (Addgene plasmid 55219) with an N-terminal 6xHis tag and a TEV site; the tag was removed with TEV protease; also called ELAC2^mut; ELAC2(D550N); source: Hi-Five insect cells (baculovirus), purified (HisTrap, TEV cleavage, heparin, Superdex 200); not shown: 6xHis, N-terminal, cleaved
T1 sequence (looked up): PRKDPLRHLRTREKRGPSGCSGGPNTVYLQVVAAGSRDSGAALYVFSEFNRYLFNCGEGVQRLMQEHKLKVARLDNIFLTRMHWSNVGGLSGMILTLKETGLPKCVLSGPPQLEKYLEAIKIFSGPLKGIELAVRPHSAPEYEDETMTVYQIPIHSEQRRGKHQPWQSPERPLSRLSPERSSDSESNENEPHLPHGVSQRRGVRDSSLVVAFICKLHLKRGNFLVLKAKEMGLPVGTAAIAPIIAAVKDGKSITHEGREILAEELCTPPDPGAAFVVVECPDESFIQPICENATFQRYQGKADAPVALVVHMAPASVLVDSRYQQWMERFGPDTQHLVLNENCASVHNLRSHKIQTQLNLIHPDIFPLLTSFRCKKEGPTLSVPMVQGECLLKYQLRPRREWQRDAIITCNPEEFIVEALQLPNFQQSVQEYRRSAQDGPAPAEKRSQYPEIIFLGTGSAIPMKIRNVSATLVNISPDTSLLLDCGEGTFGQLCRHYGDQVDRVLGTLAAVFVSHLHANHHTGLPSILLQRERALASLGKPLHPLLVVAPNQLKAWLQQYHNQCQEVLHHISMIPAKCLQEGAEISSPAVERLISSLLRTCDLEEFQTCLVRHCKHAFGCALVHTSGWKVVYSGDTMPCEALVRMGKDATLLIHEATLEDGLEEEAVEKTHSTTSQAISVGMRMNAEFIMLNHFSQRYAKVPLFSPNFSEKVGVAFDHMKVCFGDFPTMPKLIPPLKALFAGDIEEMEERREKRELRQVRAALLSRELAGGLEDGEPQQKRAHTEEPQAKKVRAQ
The experiment in a line: cryo-EM structure; mt-RNase Z^Gln: 5–tRNA^Gln–24 first 5′ processed with Δ1–91 TRMT10C–SDR5C1 and Δ1–45 PRORP, then Δ1–31 ELAC2-Asp550Asn added, on ice 60 min; GraFix 10–30% sucrose gradient with 0–0.015% glutaraldehyde, 25 mM Na–HEPES pH 7.5, 20 mM NaCl, 20 μM ZnCl2; pre-mt-tRNA^Gln is part of the complex. To be noted: both partners purified.

In data set [1] the target is T2, ELAC2 (cryo-EM);TRMT10C;SDR5C1 (Homo sapiens;Homo sapiens;Homo sapiens, UniProt Q9BQ52;Q7L0Y3;Q99714 32-826;40-403;1-261, ||).
T2 sequence 1: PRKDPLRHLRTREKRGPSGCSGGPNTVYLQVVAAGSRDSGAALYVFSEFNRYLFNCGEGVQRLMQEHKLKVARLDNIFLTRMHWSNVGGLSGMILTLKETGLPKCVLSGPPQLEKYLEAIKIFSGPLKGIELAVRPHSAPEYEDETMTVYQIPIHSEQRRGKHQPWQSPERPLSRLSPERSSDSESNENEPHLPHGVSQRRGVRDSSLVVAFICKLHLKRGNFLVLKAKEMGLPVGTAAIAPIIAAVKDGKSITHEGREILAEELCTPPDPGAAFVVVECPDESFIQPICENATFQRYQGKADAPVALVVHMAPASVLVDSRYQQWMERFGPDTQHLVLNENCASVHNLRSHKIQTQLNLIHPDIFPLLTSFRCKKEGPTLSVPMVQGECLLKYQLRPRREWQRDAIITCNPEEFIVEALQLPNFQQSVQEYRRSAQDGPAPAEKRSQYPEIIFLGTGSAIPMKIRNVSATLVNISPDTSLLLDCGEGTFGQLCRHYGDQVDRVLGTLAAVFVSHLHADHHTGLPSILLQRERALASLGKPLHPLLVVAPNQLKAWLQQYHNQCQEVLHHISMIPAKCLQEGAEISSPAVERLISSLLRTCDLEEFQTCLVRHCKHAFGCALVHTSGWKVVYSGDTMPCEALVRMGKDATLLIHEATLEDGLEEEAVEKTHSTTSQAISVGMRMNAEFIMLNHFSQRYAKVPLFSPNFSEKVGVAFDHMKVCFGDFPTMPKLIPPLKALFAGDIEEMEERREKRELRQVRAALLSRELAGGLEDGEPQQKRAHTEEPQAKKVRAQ
T2 sequence 2: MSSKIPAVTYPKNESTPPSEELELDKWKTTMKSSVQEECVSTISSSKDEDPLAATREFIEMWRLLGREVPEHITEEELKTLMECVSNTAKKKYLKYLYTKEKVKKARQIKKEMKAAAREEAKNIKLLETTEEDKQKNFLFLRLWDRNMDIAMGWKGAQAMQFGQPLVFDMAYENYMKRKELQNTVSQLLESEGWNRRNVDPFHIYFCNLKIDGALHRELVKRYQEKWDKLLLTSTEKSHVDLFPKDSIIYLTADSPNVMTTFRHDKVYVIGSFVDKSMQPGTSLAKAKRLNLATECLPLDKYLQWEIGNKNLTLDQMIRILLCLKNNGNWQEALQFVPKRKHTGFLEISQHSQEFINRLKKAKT
T2 sequence 3: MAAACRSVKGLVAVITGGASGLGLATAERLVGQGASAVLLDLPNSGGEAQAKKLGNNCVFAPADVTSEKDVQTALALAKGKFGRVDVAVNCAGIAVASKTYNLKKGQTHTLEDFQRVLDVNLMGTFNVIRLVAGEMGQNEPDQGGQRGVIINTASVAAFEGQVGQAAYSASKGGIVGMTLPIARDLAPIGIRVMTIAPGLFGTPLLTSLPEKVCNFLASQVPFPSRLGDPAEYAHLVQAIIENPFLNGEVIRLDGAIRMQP
The experiment in a line: cryo-EM structure; mt-RNase Z Gln complex (EMD-19455); FA: 20 mM Tris-HCl pH 8, 80 mM NaCl, 40 mM KCl, 3 mM MgCl2, 5% glycerol, 2 mM DTT; 20 nM RNA; 20 min at 20 C, read at room temperature. To be noted: protein: recombinant;recombinant;recombinant; tags: N-terminal 6xHis-TEV (cleaved);;; copies: 1;1;4; tRNA cloverleaf with canonical elbow.

The target of the data set “Δ1–91 TRMT10C” is B1. Briefly: cryo-EM structure; mt-RNase Z^Gln: 5–tRNA^Gln–24 first 5′ processed with Δ1–91 TRMT10C–SDR5C1 and Δ1–45 PRORP, then Δ1–31 ELAC2-Asp550Asn added, on ice 60 min; GraFix 10–30% sucrose gradient with 0–0.015% glutaraldehyde, 25 mM Na–HEPES pH 7.5, 20 mM NaCl, 20 μM ZnCl2; pre-mt-tRNA^Gln is part of the complex. To be noted: both partners purified.

Regarding B1, the binding result with Δ1–31 ELAC2-Asp550Asn is recorded as “binds”.

B2: 5-tRNAGln-24 Trailer(Tyr) (structured_RNA)
RNA: GGUGAUAGGAUGGGGUGUGAUAGGUGGCACGGAGAAUUUUGGAUUCUCAGGGAUGGGUUCGAUUCUCAUAGUCCUAGGCUCCGAGGUGAUUUUCAAGCUCG
As for B2, the binding result in data set [1] is listed as “binds”.

B3: SDR5C1 (enzyme, human)
chain: MAAACRSVKGLVAVITGGASGLGLATAERLVGQGASAVLLDLPNSGGEAQAKKLGNNCVFAPADVTSEKDVQTALALAKGKFGRVDVAVNCAGIAVASKTYNLKKGQTHTLEDFQRVLDVNLMGTFNVIRLVAGEMGQNEPDQGGQRGVIINTASVAAFEGQVGQAAYSASKGGIVGMTLPIARDLAPIGIRVMTIAPGLFGTPLLTSLPEKVCNFLASQVPFPSRLGDPAEYAHLVQAIIENPFLNGEVIRLDGAIRMQP
notes: also called MRPP2; HSD17B10
With B3, the binding result with Δ1–91 TRMT10C was “binds”.
